Tests used:
TIEG expression = test: Real time PCR analysis of muscle samples, TIEG; assay type: in vivo, human; details: mean post-Tro/mean pre-Tro
Method: (§1) The gene expression changes observed in the human muscle samples derived from lean and diabetic individuals or from diabetic individuals post-Troglitazone treatment, were further confirmed by the use of real-time quantitative PCR. A combination of specific PCR primers and a Taqman probe were designed to detect and quantify expression levels for each gene. Relative gene expression levels were determined in this manner in each patient and the mean expression level in either the lean or diabetic patient population was then calculated.

[1] = test system: connective tissue growth factor (CTGF) mRNA; test: Gene expression profiling of muscle samples on custom Affymetrix chips, probe set mbxhummus 24330; assay type: in vivo, human; details: muscle of diabetics, Clamp sample
Source text: (§2) The molecular mechanism by which thiazolidinediones (TZDs) cause an increase in peripheral insulin sensitivity was studied. Genes in muscle or fat whose expression is altered by TZDs may lie on a pathway leading from TZD treatment to increased insulin sensitivity. Modulators of such genes can elicit the same effect as TZD treatment. Moreover, such modulators can lack some of the side effects of TZD. The majority of glucose disposal occurs in muscle. For this reason, gene expression profiling in human muscle from diabetics treated with troglitazone was used to identify genes important for TZD action and therefore treatment of diabetes and insulin resistance. […] The gene expression profile for each individual was determined by hybridization of cRNA to custom synthesized Affymetrix chips. Gene expression profile differences were calculated as follows. […] The raw data was analyzed by a statistical test to remove ‘outliers’. The mean ‘average difference score’ was then calculated from the average difference scores for all individuals in a particular treatment group. Genes were determined to be changed in condition 1 (such as basal diabetics before trogliazone (tro) treatment) versus condition 2 (such as basal diabetics after troglitazone treatment) by calculating the Students t test statistic between the two conditions and selecting those with t less than or equal to 0.05. […]

CTGF expression = test: Real time PCR analysis of muscle samples, CTGF; assay type: in vivo, human; details: mean post-Tro/mean pre-Tro
Method: as §1

TIEG mRNA = test: Gene expression profiling of muscle samples on custom Affymetrix chips, probe set mbxhummus23808; assay type: in vivo, human; details: muscle of diabetics, Basal sample
Source text: as §2

3T3-L1 adipocytes [2] = test: Glut 4 translocation analysis; assay type: cell-based, murine; details: for Fold Change (Mean hCTGF/Mean LacZ), cells positive for cell surface Glut 4 / Fold Change (Mean hTIEG/Mean LacZ), cells positive for cell surface Glut 4: n = 3; for Glut 4 translocation with insulin (in words) / Basal Glut 4 translocation (in words): over-expression in 3T3-L1 adipocytes; for Glut 4 translocation with insulin (in words): all insulin concentrations tested; for Basal Glut 4 translocation (in words): no insulin
Source text: One analysis called “Glut 4 translocation” involves over-expressing the gene in 3T3-L1 adipocytes and then monitoring the ability of insulin to cause the movement (translocation) of the major insulin-regulated glucose transporter, Glut 4, to the cell surface. The cDNA encoding the human gene was sub-cloned into the mammalian expression vector pcDNA3.1 which provides for a V5 epitope tag. This plasmid encoding the human gene was then introduced into differentiated murine 3T3-L1 adipocytes along with a cloned Glut 4 expression construct using an electroporation procedure essentially as described in Kanzaki et al. J. Biol. Chem 275 7167-7175 (2000). A plasmid expressing LacZ was used as a negative control. After stimulation with increasing concentrations of insulin, cells co-expressing both the human gene and cloned Glut 4 were scored for the presence of Glut 4 at the cell surface using fluorescence microscopy.

3T3-L1 adipocytes [3] = test: Glucose transport analysis in 3T3-L1 adipocytes; assay type: cell-based, murine
Method: (§3) In some instances another analysis called “glucose transport” was used. This involves over-expressing the gene in either differentiated 3T3-L1 adipocytes or differentiated L6 myotubes and then monitoring the ability of insulin to stimulate glucose transport into these two cell types. A recombinant adenovirus encoding the human gene tagged with a FLAG epitope tag was prepared essentially as described in Zhou et al. Proc. Nat. Acad. Sci. USA. 95: 2509-2514. 3T3-L1 adipocytes or L6 myotubes were infected with recombinant adenovims expressing the human gene. A virus expressing an irrelevant protein was used as the control. 24 h post-infection the cells are stimulated with increasing concentrations of insulin and glucose transport into the cells determined by the counting the accumulation of a radiolabelled glucose analog (2-deoxyglucose) essentially as describe in Kotani et al. Mol Cell. Biol. 18 6971-6982 (1998), Fujishiro et al. J. Biol. Chem. 276 19800-19806 (2001), Ross et al. Biochem. Biophys. Res. Commun. 302 354-358 (2003).

L6 myotubes = test: Glucose transport analysis in L6 myotubes; assay type: cell-based
Method: as §3

[4] = 3 months of Troglitazone treatment
[5] = after 3 months of Troglitazone treatment, mean average difference score

**Q.** How did the “Expression Fold change, TIEG, Diabetics + Tro/Diabetics − Tro” value (TIEG expression) turn out when `Cc1c(C)c2c(c(C)c1O)CCC(C)(COc1ccc(CC3SC(=O)NC3=O)cc1)O2` (stereo not drawn) [Troglitazone, troglitazone] was run?
**A.** Its value is 0.69.

**Q.** What about the “Fold Change diabetic post tro/diabetic pre tro (Connective Tissue Growth Factor)” value [1, 4] of the same molecule?
**A.** Its value is 0.07.

**Q.** What about the “Diabetic Post-Trog Mean Expr (Connective Tissue Growth Factor)” value [1, 5] of the same molecule?
**A.** The value was 29.

**Q.** And the “Expression Fold change, CTGF, Diabetics + Tro/Diabetics − Tro” value (CTGF expression)?
**A.** Its value is 0.35.

**Q.** What about the “Fold Change diabetic post-trog/diabetic pre-trog (TIEG)” value (TIEG mRNA; [4]) of the same molecule?
**A.** Its value is 0.65.

**Q.** And the “Diabetic Post-Trog Mean Expr (TIEG)” value (TIEG mRNA; [5])?
**A.** Its value is 2634.

B1: hCTGF: human Connective Tissue Growth Factor (SEQ ID NO:2) over-expressed in cells from pcDNA3.1 plasmid or recombinant adenovirus (protein, listed as Homo sapiens)
chain: MTAASMGPVRVAFVVLLALCSRPAVGQNCSGPCRCPDEPAPRCPAGVSLVLDGCGCCRVCAKQLGELCTERDPCDPHKGLFCDFGSPANRKIGVCTAKDGAPCIFGGTVYRSGESFQSSCKYQCTCLDGAVGCMPLCSMDVRLPSPDCPFPRRVKLPGKCCEEWVCDEPKDQTVVGPALAAYRLEDTFGPDPTMIRANCLVQTTEWSACSKTCGMGISTRVTNDNASCRLEKQSRLCMVRPCEADLEENIKKGKKCIRTPKISKPIKFELSGCTSMKTYRAKFCGVCTDGRCCTPHRTTTLPVEFKCPDGEVMKKNMMFIKTCACHYNCPGDNDIFESLYYRKMYGDMA
modifications: human connective tissue growth factor (CTGF)
**Q.** What does the source list for B1?
**A.** Fold Change (Mean hCTGF/Mean LacZ), cells positive for cell surface Glut 4 (3T3-L1 adipocytes [2]; Insulin 0 nM): 0.97; Fold Change (Mean hCTGF/Mean LacZ), cells positive for cell surface Glut 4 (3T3-L1 adipocytes [2]; Insulin 1 nM): 0.35; Fold Change (Mean hCTGF/Mean LacZ), cells positive for cell surface Glut 4 (3T3-L1 adipocytes [2]; Insulin 10 nM): 0.45; Glut 4 translocation with insulin (in words) (3T3-L1 adipocytes [2]): significantly inhibited Glut 4 translocation at all insulin concentrations tested; Basal Glut 4 translocation (in words) (3T3-L1 adipocytes [2]): little or no effect on basal Glut 4 translocation; FC (hCTGF/Con) glucose transport (3T3-L1 adipocytes [3]; Expt 1, Insulin 0 nM): 0.7; FC (hCTGF/Con) glucose transport (3T3-L1 adipocytes [3]; Expt 1, Insulin 0.05 nM): 0.6; FC (hCTGF/Con) glucose transport (3T3-L1 adipocytes [3]; Expt 1, Insulin 0.1 nM): 0.6; FC (hCTGF/Con) glucose transport (3T3-L1 adipocytes [3]; Expt 1, Insulin 0.3 nM): 0.7; FC (hCTGF/Con) glucose transport (3T3-L1 adipocytes [3]; Expt 1, Insulin 1 nM): 0.8; FC (hCTGF/Con) glucose transport (3T3-L1 adipocytes [3]; Expt 1, Insulin 10 nM): 0.6; FC (hCTGF/Con) glucose transport (3T3-L1 adipocytes [3]; Expt 2, Insulin 0 nM): 0.6; FC (hCTGF/Con) glucose transport (3T3-L1 adipocytes [3]; Expt 2, Insulin 0.05 nM): 0.6; FC (hCTGF/Con) glucose transport (3T3-L1 adipocytes [3]; Expt 2, Insulin 0.1 nM): 0.7; FC (hCTGF/Con) glucose transport (3T3-L1 adipocytes [3]; Expt 2, Insulin 0.3 nM): 0.8; FC (hCTGF/Con) glucose transport (3T3-L1 adipocytes [3]; Expt 2, Insulin 1 nM): 0.8; FC (hCTGF/Con) glucose transport (3T3-L1 adipocytes [3]; Expt 2, Insulin 10 nM): 0.7; FC (hCTGF/Con) glucose transport (3T3-L1 adipocytes [3]; Expt 3, Insulin 0 nM): 0.8; FC (hCTGF/Con) glucose transport (3T3-L1 adipocytes [3]; Expt 3, Insulin 0.05 nM): 0.7; FC (hCTGF/Con) glucose transport (3T3-L1 adipocytes [3]; Expt 3, Insulin 0.1 nM): 0.7; FC (hCTGF/Con) glucose transport (3T3-L1 adipocytes [3]; Expt 3, Insulin 0.3 nM): 0.8; FC (hCTGF/Con) glucose transport (3T3-L1 adipocytes [3]; Expt 3, Insulin 1 nM): 0.9; FC (hCTGF/Con) glucose transport (3T3-L1 adipocytes [3]; Expt 3, Insulin 10 nM): 0.9; Mean FC (hCTGF/Con) +/− SEM (n = 3) glucose transport (3T3-L1 adipocytes [3]; Insulin 0 nM): 0.70 +/− 0.03; Mean FC (hCTGF/Con) +/− SEM (n = 3) glucose transport (3T3-L1 adipocytes [3]; Insulin 0.05 nM): 0.63 +/− 0.06; Mean FC (hCTGF/Con) +/− SEM (n = 3) glucose transport (3T3-L1 adipocytes [3]; Insulin 0.1 nM): 0.67 +/− 0.02; Mean FC (hCTGF/Con) +/− SEM (n = 3) glucose transport (3T3-L1 adipocytes [3]; Insulin 0.3 nM): 0.76 +/− 0.05; Mean FC (hCTGF/Con) +/− SEM (n = 3) glucose transport (3T3-L1 adipocytes [3]; Insulin 1 nM): 0.83 +/− 0.02; Mean FC (hCTGF/Con) +/− SEM (n = 3) glucose transport (3T3-L1 adipocytes [3]; Insulin 10 nM): 0.75 +/− 0.10; Glucose transport (in words) (3T3-L1 adipocytes [3]; over-expression in 3T3-L1 adipocytes, basal and insulin stimulated): inhibited both basal and insulin stimulated glucose transport; FC (hCTGF/Con) glucose transport (L6 myotubes; Expt 1, Insulin 0 nM): 0.78; FC (hCTGF/Con) glucose transport (L6 myotubes; Expt 1, Insulin 10 nM): 0.67; FC (hCTGF/Con) glucose transport (L6 myotubes; Expt 1, Insulin 100 nM): 0.70; FC (hCTGF/Con) glucose transport (L6 myotubes; Expt 2, Insulin 0 nM): 0.79; FC (hCTGF/Con) glucose transport (L6 myotubes; Expt 2, Insulin 10 nM): 0.92; FC (hCTGF/Con) glucose transport (L6 myotubes; Expt 2, Insulin 100 nM): 1.05; FC (hCTGF/Con) glucose transport (L6 myotubes; Expt 3, Insulin 0 nM): 0.79; FC (hCTGF/Con) glucose transport (L6 myotubes; Expt 3, Insulin 10 nM): 0.77; FC (hCTGF/Con) glucose transport (L6 myotubes; Expt 3, Insulin 100 nM): 0.74; Mean FC (CTGF/Con) +/− SEM (n = 3) glucose transport (L6 myotubes; Insulin 0 nM): 0.79 +/− 0.004; Mean FC (CTGF/Con) +/− SEM (n = 3) glucose transport (L6 myotubes; Insulin 10 nM): 0.79 +/− 0.07; Mean FC (CTGF/Con) +/− SEM (n = 3) glucose transport (L6 myotubes; Insulin 100 nM): 0.83 +/− 0.11; Glucose transport (in words) (L6 myotubes; over-expression in L6 myotubes, basal and insulin stimulated): inhibited both basal and insulin stimulated glucose transport

B2: hTIEG: human TIEG (SEQ ID NO:8) over-expressed in 3T3-L1 adipocytes from pcDNA3.1 plasmid (protein, listed as Homo sapiens)
chain: MEERMEMISERPKESMYSWNKTAEKSDFEAVEALMSMSCSWKSDFKKYVENRPVTPVSDLSEEENLLPGTPDFHTIPAFCLTPPYSPSDFEPSQVSNLMAPAPSTVHFKSLSDTAKPHIAAPFKEEEKSPVSAPKLPKAQATSVIRHTADAQLCNHQTCPMKAASILNYQNNSFRRRTHLNVEAARKNIPCAAVSPNRSKCERNTVADVDEKASAALYDFSVPSSETVICRSQPAPVSPQQKSVLVSPPAVSAGGVPPMPVICQMVPLPANNPVVTTVVPSTPPSQPPAVCPPVVFMGTQVPKGAVMFVVPQPVVQSSKPPVVSPNGTRLSPIAPAPGFSPSAAKVTPQIDSSRIRSHICSHPGCGKTYFKSSHLKAHTRTHTGEKPFSCSWKGCERRFARSDELSRHRRTHTGEKKFACPMCDRRFMRSDHLTKHARRHLSAKKLPNWQMEVSKLNDIALPPTPAPTQ
modifications: human transforming growth factor-beta (TGFB) inducible early growth response (TIEG)
**Q.** With B2 as the molecule, how does the “Fold Change (Mean hTIEG/Mean LacZ), cells positive for cell surface Glut 4” value (from here on “Fold Change (Mean hTIEG/Mean LacZ)”) (3T3-L1 adipocytes [2]; Insulin 0 nM) read?
**A.** Its value is 1.34.

**Q.** What about the “Fold Change (Mean hTIEG/Mean LacZ)” value (3T3-L1 adipocytes [2]; Insulin 1 nM) of the same molecule?
**A.** The value was 0.20.

**Q.** What about the “Fold Change (Mean hTIEG/Mean LacZ)” value (3T3-L1 adipocytes [2]; Insulin 10 nM) of the same molecule?
**A.** The value was 0.11.

**Q.** What about the “Glut 4 translocation with insulin (in words)” value (3T3-L1 adipocytes [2]) of the same molecule?
**A.** The value was “significantly inhibited Glut 4 translocation at all insulin concentrations tested”.

**Q.** And the “Basal Glut 4 translocation (in words)” value (3T3-L1 adipocytes [2])?
**A.** Its value is “little or no effect on basal Glut 4 translocation”.

Reference: patent publication US20060074018A1, “Methods of diagnosing & treating diabetes and insulin resistance” (Metabolex Inc, priority 2002, published 2006)
